Assay results taken from patent US12611470B2, “Chromatin-opening element for stable long term gene expression” (CZ Biohub SF, LLC, priority 2019, dated 2026).

B1: Candidate 6-1: Truncated SRF-UCOE variant having a 106 base pair 5′ end deletion, SEQ ID NO:2 (nucleic acid)
DNA: TTCAAAGTGCAGGGCAGACAGCAGGTGGCTCTGCCCAGGCGCCTGGATCACAGCCCGGCCTGCAGCCCTCACCTGGGCGCGGGGAGACCCTGAGGACGCTCCTCCAGGCGGCGCTGGCCGGGGCCTGCGGACACGGACGGGCGGGCTGAGCTCCGGGACCCCTCCCCGCGCCCCGCACCCCGCACCCCGCACCCCGCACCCCGCACCCGGCGCTCACCCGTCCCAGCCCCGCCGCCCGCAGCCCCAGCTGCAACGCAGCCACCGCCGCCATCGCACCCGGCCCCGCGGGCGCTTCCGGGACGCAGGAGGCATCTGCATCCGGGGCGCCGCTGAGTCCCGCCCAGAGCCCCGCCCCCGGCTCCAGGTTCTGCGAGCGGCTTCCGCCGGGCTGCTCCGCGGGCGCGTCGGCCATGAGCGAGTTGCCGGGCGACGTGCGGGCGTTTCTGCGGGAGCACCCGAGCCTGCGGCTCCAGACGGACGCCCGCAAGGTTCGCAGCGCGGGAGGGGAACGGAGTGGCGGAGAAGGGCGCAGTTGGGATGAGGGGCTGAGGGGAGGGCAGGGGAGAGGAGAGGGCAGGGGAGAGGGGAGAGGGGAGAGCAGGAGAGAGGGGAAGGCAGGGGAGAGGGCGCGGCGGGATCAGGGGAGGAGAGGGAAGGGGGCGCGGCAGGAGGGGGCACCAGGGAGCGGAGCCCTGGCCCTCCTGACGTCCTGCCCGCCCACGCGTCCGCAGGTGAGGTGCATCCTGACAGGTCACGAGCTGCCCTGCCGCCTGCCGGAGCTCCAGGTCTACACCCGCGGCAAAAAGTACCAGCGGCTGGTCCGCGCCTCCCCGGCCTTCGACTATGCAGAGTTCGAGCCGCACATCGTGCCCAGCACCAAGAACCCGTAGGTGGTC
B2: Candidate 6-3: Truncated SRF-UCOE variant having a 241 base pair 3′ end deletion, SEQ ID NO:4 (nucleic acid)
DNA: GCACACGACCACAATTCCACTGAAAGCATTTTAATACGGAACTTGTCACTCCCAGGGAGCCTCCGCTCAGCCGGCAGTTGGTTCATTTCAATCCCCACGACAACCCTTCAAAGTGCAGGGCAGACAGCAGGTGGCTCTGCCCAGGCGCCTGGATCACAGCCCGGCCTGCAGCCCTCACCTGGGCGCGGGGAGACCCTGAGGACGCTCCTCCAGGCGGCGCTGGCCGGGGCCTGCGGACACGGACGGGCGGGCTGAGCTCCGGGACCCCTCCCCGCGCCCCGCACCCCGCACCCCGCACCCCGCACCCCGCACCCGGCGCTCACCCGTCCCAGCCCCGCCGCCCGCAGCCCCAGCTGCAACGCAGCCACCGCCGCCATCGCACCCGGCCCCGCGGGCGCTTCCGGGACGCAGGAGGCATCTGCATCCGGGGCGCCGCTGAGTCCCGCCCAGAGCCCCGCCCCCGGCTCCAGGTTCTGCGAGCGGCTTCCGCCGGGCTGCTCCGCGGGCGCGTCGGCCATGAGCGAGTTGCCGGGCGACGTGCGGGCGTTTCTGCGGGAGCACCCGAGCCTGCGGCTCCAGACGGACGCCCGCAAGGTTCGCAGCGCGGGAGGGGAACGGAGTGGCGGAGAAGGGCGCAGTTGGGATGAGGGGCTGAGGGGAGGGCAGGGGAGAGGAGAGGGCAGGGGAGAGGGGAGAGGGGAGAGCAGGAGAGAGGGGAAGGCAGGGGAGAGGGCGCGGCGGGATCAGGGGAGGAGAGGGAA
B3: Candidate 6-2: Truncated SRF-UCOE variant having a 478 base pair 5′ end deletion, SEQ ID NO:3 (nucleic acid)
DNA: AGCGGCTTCCGCCGGGCTGCTCCGCGGGCGCGTCGGCCATGAGCGAGTTGCCGGGCGACGTGCGGGCGTTTCTGCGGGAGCACCCGAGCCTGCGGCTCCAGACGGACGCCCGCAAGGTTCGCAGCGCGGGAGGGGAACGGAGTGGCGGAGAAGGGCGCAGTTGGGATGAGGGGCTGAGGGGAGGGCAGGGGAGAGGAGAGGGCAGGGGAGAGGGGAGAGGGGAGAGCAGGAGAGAGGGGAAGGCAGGGGAGAGGGCGCGGCGGGATCAGGGGAGGAGAGGGAAGGGGGCGCGGCAGGAGGGGGCACCAGGGAGCGGAGCCCTGGCCCTCCTGACGTCCTGCCCGCCCACGCGTCCGCAGGTGAGGTGCATCCTGACAGGTCACGAGCTGCCCTGCCGCCTGCCGGAGCTCCAGGTCTACACCCGCGGCAAAAAGTACCAGCGGCTGGTCCGCGCCTCCCCGGCCTTCGACTATGCAGAGTTCGAGCCGCACATCGTGCCCAGCACCAAGAACCCGTAGGTGGTC

Tested on: P19 cells
Assay: Lentiviral transduction silencing experiment, UCOE linked to CMV, EF1α, RSV or PGK promoter driving GFP
Assay type: cell-based, mouse
Settings: for GFP positive cells / expression compared to the negative control: final timepoint; for anti-silencing performance across all four tested promoters: CMV, EF1α, RSV, PGK promoters
From the text: The graphs show the raw data of measured percent GFP positive cells (% GFP+) for each construct over time. Transduced populations were sorted into triplicate wells using FACS at day 0 (5 days after lentiviral transductions) to begin the study at 100% GFP positive cells. Expression is lost quickly within the first 10 days, and then stabilizes around day 15. Data is reported as mean±SD from biological triplicates. Two positive UCOE controls (A2UCOE, 3′UCOE) and a negative control (no insulator region) were used.
Percent GFP positive cells at the final timepoint (day 26 for CMV and RSV, day 27 for PGK and EF1α) of the lentivirus silencing experiment across the four tested promoters is plotted. P19 cells were FACS-sorted five days after transduction (day 0) and then assayed over a 26 or 27-day time period thereafter. Data is reported as mean±SD from three biological replicates.
Two plasmids (pCS3800: encoding HIV-1 Gag; pCS380: encoding VSVg envelope protein) were used with varying versions of the donor plasmid pCS3799. HEK293T cells were plated at 5×10^6 cells in a 10 cm dish. Twenty-four hours after plating, the three plasmids (10 μg donor, 8 μg pCS3800, 10 μg pCS3801) were co-transfected together using a calcium phosphate protocol (Zufferey, R. T. and Trono, D. (2001) Current Protocols in Human Genetics, 26 (1), 12.10.1-12.10.12; DOI: 10.1002/0471142905.hg1210s26 (55)). The total DNA was brought to 500 μL in water, to which 500 μL of 2×HEPES-buffered saline, pH7.0 (Alfa Aesar) was added and mixed. One-tenth of the total volume (100 μL) of 2.5 M calcium chloride (Sigma-Aldrich) was then added to the mixture, followed by a 20-minute incubation. The mixture was then added to the plate in a dropwise manner. Media was replaced six hours later, and the supernatant was collected at 48 hr after the transfection, filtered through 0.4 μm filter, and frozen at −80° C. in 1 mL aliquots. Lentiviral aliquots were thawed in a 37° C. bead bath before transductions.
P19 cells were plated at 20-30,000 cells/well in 12-well plates one day before transduction. Twenty-four hours after plating, cells were transduced at varying dilutions of the lentiviral stock (ranging from 1:2 to 1:100) in DMEM+10% FBS with 8 μg/mL polybrene (Santa Cruz Biotechnologies). Media was refreshed on P19 cells 24 hours after transduction, and cells were passaged and assayed through a MACSQuant® VYB flow cytometer (Miltenyi Biotec) 48 h after transduction. MOI was determined by reporter expression at this timepoint using the following formula: MOI=ln (1/1-p) where p is the % of cells that are GFP positive at 48 hours post-transduction (Chen, S. et al. (2015) Cell, 160, 1246-1260 (56)).
Cells were FACS-sorted on the BD Influx™ cell sorter at the Stanford FACS Facility using the 488-nm laser and 525/40 filter to assay GFP expression. After gating for singlets and viability, GFP+ gate was drawn to be <0.1% GFP positive in non-transduced P19 cells. GFP+ gates were re-drawn for each promoter set to avoid the ˜10% highest and lowest expressing cells within the GFP+ gate, but the same gate was used for every experimental condition under the same promoter. Triplicate wells of each population (12-15,000 cells/well in a 24-well plate) were collected.
Fluorescence data throughout silencing experiments was obtained using a MACSQuant® VYB flow cytometer (Miltenyi Biotec). EGFP was measured through the 488-nm laser and 525/50 nm band pass filter. Flow cytometry data was analyzed using the FlowJo™ single cell flow cytometry analysis software (Tree Star). After being gated for singlets and viability, GFP+ gates in FlowJo were drawn such that a non-transfected or non-transduced P19 cell population was at 1% GFP+. Median values reported are of cells within the GFP+ gate, both % GFP positive and median are reported with the standard deviation of biological replicates. […]

[1] = Ef1α promoter, day 27 after FACS sort to 100% GFP+

| Molecule | % GFP+ cells at final timepoint (CMV promoter, day 26) [%] | improvement over the negative control (CMV promoter, day 26) [fold] | GFP positive cells / expression compared to the negative control (Ef1α promoter) | % GFP+ cells at final timepoint (PGK promoter, day 27) [%] | expressing cells / improvement over the negative control (PGK promoter, day 27) [fold] | % GFP+ cells at final timepoint (RSV promoter, day 26) [%] | anti-silencing performance across all four tested promoters | % GFP+ cells, representative example (one biological replicate) (EF1a promoter, day 27) [%] | % GFP+ cells at final timepoint [1] | % GFP+ cells, representative example (one biological replicate) (PGK promoter, day 27) [%] | efficacy in resisting silencing (CMV promoter) | % GFP+ cells, representative example (one biological replicate) (CMV promoter, day 26) [%] | improvement over A2UCOE (CMV promoter, day 26) [fold] | efficacy in resisting silencing (Ef1α promoter) | efficacy in resisting silencing (PGK promoter) | efficacy in resisting silencing (RSV promoter) |
| --- | --- | --- | --- | --- | --- | --- | --- | --- | --- | --- | --- | --- | --- | --- | --- | --- |
| B1 | 39 | 3 | 3.6 times | 31 | 5 | 68 | – | – | – | – | – | – | – | – | – | – |
| B2 | 39 | 3 | more than four times | 49 | – | 66 | most consistent activity | 69 | greater than 65% | 47.8 | – | – | – | – | – | – |
| B3 | 55 | 4.4 | – | 17 | – | – | failed to outperform the negative control in 3 of the 4 promoters tested | – | 11% | – | best-performing population | 59.2 | 1.4 | ineffective | substantially less effective than the other Candidate 6 sequences | ineffective |
